Our source for the pERK ICW EC50 (nmol/L) and pFGFR ICW EC50 (nmol/L) values is patent US20240325499A1, “FGF21 COMPOUND / GLP-1R AGONIST COMBINATIONS WITH OPTIMIZED ACTIVITY RATIO” (SANOFI, priority 2018, published 2024).

This experiment addresses human FGFR1c (FGF receptor 1c isoform) together with human beta-Klotho (KLB) (human) (UniProt P11362). Briefly: cell-based or functional assay.

Chain of mature human wild-type FGF21, FGF21(His29-Ser209) (Q9NSA1 29-209 L174P): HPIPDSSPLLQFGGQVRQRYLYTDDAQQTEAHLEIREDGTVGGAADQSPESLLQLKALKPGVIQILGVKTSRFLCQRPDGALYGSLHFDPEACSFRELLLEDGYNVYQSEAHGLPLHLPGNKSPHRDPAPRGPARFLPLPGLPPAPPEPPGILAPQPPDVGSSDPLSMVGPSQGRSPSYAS

Substance “mature human wild-type FGF21, FGF21(His29-Ser209) (from UniProt Q9NSA1 29-209) (ligand)” yielded a pERK ICW EC50 (nmol/L) of 0.18 nmol/L and a pFGFR ICW EC50 (nmol/L) of 4.8 nmol/L.
